T1: human gp39 (cell surface) (human, UniProt P29965 1-261)
T1 construct: whole, on cells; this was read as mgp39-CHO (membrane gp39); also called CD40 ligand; CD40L
T1 sequence (looked up): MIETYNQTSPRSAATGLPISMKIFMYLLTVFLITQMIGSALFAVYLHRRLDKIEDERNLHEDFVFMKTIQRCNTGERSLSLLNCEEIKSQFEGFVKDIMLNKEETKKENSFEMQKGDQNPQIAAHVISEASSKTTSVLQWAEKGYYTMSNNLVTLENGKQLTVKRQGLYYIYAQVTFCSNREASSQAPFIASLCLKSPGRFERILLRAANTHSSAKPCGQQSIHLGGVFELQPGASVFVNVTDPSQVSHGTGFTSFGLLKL

B1: humanized 24-31 (version 1) (antibody, V domains shown)
VH: EVQLQESGPGLVKPSETLSLTCTVSGDSITNGFWIWIRKPPGNKLEYMGYISYSGSTYYNPSLKSRISISRDTSKNQFSLKLSSVTAADTGVYYCACRSYGRTPYYFDFWGQGTTLTVSS
VL: DIVMTQSPSFLSASVGDRVTITCKASQNVITAVAWYQQKPGKSPKLLIYSASNRYTGVPDRFSGSGSGTDFTLTISSLQPEDFADYFCQQYNSYPYTFGGGTKLEIK
notes: also called h24-31; humanized Version 1
B2: murine antibody 24-31 (antibody, mouse IgG1, V domains shown)
VH: EVQLQESGPSLVKPSQTLSLTCSVTGDSITNGFWIWIRKFPGNKLEYMGYISYSGSTYYNPSLKSRISITRDTSQNQFYLQLNSVTTEDTGTYYCACRSYGRTPYYFDFWGQGTTLTVSS
VL: DIVMTQSQKFMSTSVGDRVSITCKASQNVITAVAWYQQKPGQSPKLLIYSASNRYTGVPDRFSGSGSGTDFTLTISNMQSEDLADYFCQQYNSYPYTFGGGTKLEIK
notes: Murine IgG1 from hybridoma; also called anti-gp39 24-31 mAb; murine 24-31
B3: humanized 24-31 (version 2) (antibody, V domains shown)
VH: EVQLQESGPGLVKPSETLSLTCTVSGDSITNGFWIWIRKPPGNKLEYMGYISYSGSTYYNPSLKSRISISRDTSKNQFSLKLSSVTAADTGVYYCACRSYGRTPYYFDFWGQGTTLTVSS
VL: DIVMTQSPDSLAVSLGERATINCKASQNVITAVAWYQQKPGQSPKLLIYSASNRYTGVPDRFSGSGSGTDFTLTISSLQAEDVADYFCQQYNSYPYTFGGGTKLEIK
notes: It was expressed from N5KG1 with human kappa and gamma 1 constant regions; also called humanized Version 2; #2 VL with #1 VH

target: T1, human gp39 (cell surface); assay: Scatchard analysis, 125I-labelled antibody competed with unlabelled antibody on gp39-CHO cells
Experimental: ^125I-labeled antibody was mixed and incubated with non-labeled antibody in a dilution series. Based on the total amount of bound antibody and the amount of free antibody, a Scatchard plot was generated from a […] graph. The total antibody concentration was based on a standard size of 75 kD for one active site.
The Kd was calculated by generating a "best fit" line. The inverse of the slope of the curve is the Kd. The correlation coefficient, r^2, was also computed.

Compared with B1, B2 is 1.5-fold higher in Kd: 5.6 nM for the first, 8.51 nM for the second. The first binds more tightly here.

In the case of B3, the Kd is reported as 14 nM.

From patent US7122187 (IDEC PHARMACEUTICALS, dated 2006)
